{"source": "paper PMC10367113", "about": "(Nature chemical biology, 2022)", "molecules": {"B1": {"name": "Bl_Man38C, GH38 α-mannosidase from Bifidobacterium longum NCC2705 (enzyme)", "chain": "MLLKVNREIDRCKRVMRERVWPHIHQVLAQCTVGAVKNPGEPEMPAAFITRAVSGQVIFQPLAVGEPWGTSWGTTWIRVEGQLPETLPEGRAIELVFNLGWLEWPVGGHIEAMAYRADGTVIKALHPRNHWMPLVSADGVKDRVVNPDGSFVVYVEGAYNPNVPSFTVTELGTKPTGKADERYEFSSIDIAALDQDMFDYWADLDVVTGSLENMNDADPRYWKLAKAMQRSINLWDEKDYNTLALARKALDKVMHNPANASAMTLTAMGHSHIDSAWLWPVRETERKVGRTVSNALALMDIDPDFTYVMSAAQHFAWLEERHPDLFERVKARIAEGRFIPVGGMWVESDGTMPCGESLIRQISYGKRYFKEKLGVVPNGIWLPDSFGYTGAWPQIAKRSGYSWFLTQKLCWNDTTRLPHHSFMWEGVDGSQIFTHFPPADKYDSDMSANDMAYVQSNYKDKDLSDRGILLFGYGDGGGGPIREMTMREHRFESFEGMPKVEYGTPDDFFSKAETEMKAEAGSEMPRWKGEFYFELHRKTLTSQQEMKRGCRKEESMLRTVEYLGVVASLESADYVYPTERIDRIWKTLLLSQFHDILPGSAIEWAHRVAREEYARDLKALSDIARDAIAAIAVANPDVARIAKARISQFADVDPWRPASLVSCGEPVEVNRREDGSATLDNGLLCVHVAADGTVDSMIDLKSGREMVAKDHVMGRYEILKDEPGVFDAWDVERDAFLCATALADGHIVSIETTADGSAVIVTKNSYRDDEISTTITLRPGKSQLDFHADVEWNVPEKLLKVDIPMALSASRAQYECQYGLIERPIVKNTEGEEAMFESCSHRFVRIHDSSYGIGVANGSTYGSDVSSLRDRDDALAGTMVRMSLVAAPTAPDPRTDIGHHEFDWTVLPCASVAPLVAAAGEINAPTIENMPDIAAPITLEPIEGTPVIDWIKLADDGSGDIVARLYEAAGAKAKAMLHVGGTLDGWTVRETNTLEQDESYPDEPAGLIGGKQQAEGAELALNPFQLTTLRLSRA"}, "B2": {"name": "Bl_Man38A, GH38 α-mannosidase from Bifidobacterium longum NCC2705 (enzyme)", "chain": "MFLKPEQQLERCRRIVRQRVDPHIHPSIAQLTVESYDIPGEPMPSDEFFAKLDRGDIDFKPFMLGSEWGTTWGTVWFRLTGTVPAGYPKGKPLELILDLGWYPHSCGGHIEGLVYRADGTAIKAVHPLNYWVPFMDAEGNAQVPVAEDGSFTLYLEAASNPLLLGVPPFIETELGDHATGKPDEPYVFKSADLAEFDERYENYSVDLDVVSSLMEFADKQSPRYWQLAKALQRSLNAYDERNPESVEAARAVLAGVLAKPANASAMNVSAIGHAHIDSAWLWPVRETRRKVARTVSNALALMDADPDFKYAMSSAQQYAWLEEDHPDIFKRMKRRIEEGRFIPVGGMWVEADGMLPAGESLIRQIAYGRKYFKEHLGVEPKGVWLPDSFGYTGAWPQIARRAGYEWFLTQKISWNDTTKFPHHSFMWEGIDGSRIFTHFPPADTYAAWCKVQELDYAEKNFQDKDLSDRSLLLFGFGDGGGGPTRNMMEHLHRYENLEGVSKVSIEEPNDFFDKAHQQLAENAGPEMPVWKGELYLELHRGTLTSQQDMKRGCRQEESLLRTVEYLGAAAVLSDPEYVYPREELDRIWKTLLLNQFHDILPGSAIAWVHREAREDYRRDLKRLAEIAQDMCAVLRKANPQADLLAEARISQFRNDGASWHANRINEPTDALSVLTQTLDNGRVLLANGVLSVTIEADGTISSLLDEEHGRELVPAGTRLGQYELLRDEPAVWDAWEIERESLLMANAVTGSIESVNTENGAAQVHVHTADGDTVITTTITLRPGSHTLDFHADIDWHERERFLKVDLPLGIVADQATYDCQYGLIRRPIVKNTASDEAKYESSTNRFAIIGDAGYAAAVINGSVYGSDASPIAGNAAEGRDSGTMFRLSLLSAPTFPDPRTDIGSHEFDWSVVADATVDRALDAAGVLNAPVLHDVPDITPLASIESVNGTVVLDWMKLADDGSGDLIVRAYEAAGGQADAMLHVCPALAGASVHETNVLEGDDLAADLPVALQDGRQNAEGATLHFGPFQLATLRITR"}, "B3": {"name": "Bl_Man38B, GH38 α-mannosidase from Bifidobacterium longum NCC2705 (enzyme)", "chain": "MFLLPNQQLERCDRVMQQRVKPHIHTTLAACTLRSFHNPGEPVPSSEFLAKVRNGQVPFEPFRVPGVWGTTWGTTWFEVNGHIDMAAVKGRKVELMVDLGWLDHRGPGFQSEGLVYRADGTAIKSANPRNHWIPLVYADGSSTVELDEHGDFTVYIEAAANPFVEGPTPFSPTELGEEATGTCDFPYTLSRMDITIFNEDVFAYDMDLETVSSLIRELKDDDPRYWQLAKALQRSLNIYDERDLETVPAARAALAGVLAEPAASSAINHIAIGHAHIDSAWLWPVRETRRKVARTVSNVLALMDEDPDFTYAMSSAQQYAWLEEEHPDLFARMKRRIEEGRFIPVGGMWVESDNMIPSGESLVRQITFGRRYFKEHLGVTPRGIWLPDSFGYAGSWPQIARRAGFDWFLTQKISWNDTTKFPHHSFMWEGIDGTRILTHFPPSDTYCSSMSMRELMYSQRNFLDKDLSRNAILLYGFGDGGGGPTREMTARIRRDHDLAGAPKIDFGTPDQLFDRVRKDIVDDARGETPVFHGELYLELHRGTLTAQQDMKRGCRQEESMLRVVEYLCAVASIKNPGYVYPREELDRIWKTLLLNQFHDILPGSAIAWVHRQAREEYARDIAHLRDIAAAAGQAVKEAEPGIATVKHAVIAPYASNPQYSWAVRDGGGTAVEESVIPVSVERGGNAIILDNGRLRVRIEADGTVSSLIDLALRRELVPSGVRMGRYELLKDEPFHWDAWDIQRDAFLAADTLTDAMVEHVEDMPDGSAAIHVVTRARGVEIHTVITLRPGSGSLDFTADVNWHAVEKFLKVDMPVTVQAVNAQYECQYGLVERPINKNTRSDDAKFESCTHRFVRIADADYAAAVVNASTYGSDVSPIHAAAAHGAGRGTMVRLSLLSAPLYPDPRTDQGEHFFAWSLVAGAGMESVLAEASRLNAPIMGELPAVRPLATLTDVAGTPVLDWVKLADDGSGDLIVRLYEAAGGDAKATLRLDDTFAGCTVEEVNLMEEPVLADDLPRALVAGGPVPAEGASVSFTPFQIVTLRIRR"}}, "key": {"Bl_Endo85": {"biological_target": "T1, Bl_Endo85 (Bifidobacterium longum, UniProt Q8G4P3)", "T1 sequence (Q8G4P3 38-937)": "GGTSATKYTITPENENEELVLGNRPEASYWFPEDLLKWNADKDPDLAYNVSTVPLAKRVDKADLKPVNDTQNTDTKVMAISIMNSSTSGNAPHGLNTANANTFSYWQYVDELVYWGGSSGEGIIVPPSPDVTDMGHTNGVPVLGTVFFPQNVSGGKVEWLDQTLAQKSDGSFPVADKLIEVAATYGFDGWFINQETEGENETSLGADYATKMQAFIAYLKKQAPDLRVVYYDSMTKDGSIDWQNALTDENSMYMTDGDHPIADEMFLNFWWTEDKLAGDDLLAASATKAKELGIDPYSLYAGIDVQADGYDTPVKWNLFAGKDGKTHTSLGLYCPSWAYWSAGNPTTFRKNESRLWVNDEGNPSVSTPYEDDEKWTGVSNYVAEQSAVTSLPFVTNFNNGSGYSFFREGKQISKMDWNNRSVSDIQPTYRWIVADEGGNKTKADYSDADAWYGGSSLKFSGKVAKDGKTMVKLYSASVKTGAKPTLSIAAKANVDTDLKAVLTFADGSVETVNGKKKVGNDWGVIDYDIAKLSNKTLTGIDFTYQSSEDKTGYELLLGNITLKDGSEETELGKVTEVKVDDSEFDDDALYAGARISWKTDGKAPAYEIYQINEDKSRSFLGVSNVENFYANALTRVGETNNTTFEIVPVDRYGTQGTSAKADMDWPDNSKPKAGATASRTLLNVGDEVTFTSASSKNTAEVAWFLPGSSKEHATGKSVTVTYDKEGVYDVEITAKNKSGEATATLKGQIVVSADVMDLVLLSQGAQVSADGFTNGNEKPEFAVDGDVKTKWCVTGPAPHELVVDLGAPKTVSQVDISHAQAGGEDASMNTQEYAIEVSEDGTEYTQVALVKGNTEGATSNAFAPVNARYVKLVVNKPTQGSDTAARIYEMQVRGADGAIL", "assay": "LC-MS", "type": "biochemical", "settings": "150 mM ammonium acetate pH 5.0, 37 °C, 16 h; product GlcMan9GlcNAc"}, "Bl_Man38B": {"biological_target": "T2, Bl_Man38B (Bifidobacterium longum, UniProt Q8G4Q0)", "T2 sequence (Q8G4Q0 1-1046)": "B3 chain", "assay": "LC-MS hydrolysis kinetics", "type": "biochemical", "settings": "pH 5.5, 37 °C, 0.1 mM CoCl2"}, "cryo-EM structure": {"biological_target": "the molecule itself", "assay": "cryo-EM structure"}}}
{"molecule": "CC(=O)N[C@H]1[C@H](O[C@H]2[C@H](O)[C@@H](NC(C)=O)C(O)O[C@@H]2CO)O[C@H](CO)[C@@H](O[C@@H]2O[C@H](CO[C@H]3O[C@H](CO[C@H]4O[C@H](CO)[C@@H](O)[C@H](O)[C@@H]4O[C@H]4O[C@H](CO)[C@@H](O)[C@H](O)[C@@H]4O)[C@@H](O)[C@H](O[C@H]4O[C@H](CO)[C@@H](O)[C@H](O)[C@@H]4O[C@H]4O[C@H](CO)[C@@H](O)[C@H](O)[C@@H]4O)[C@@H]3O)[C@@H](O)[C@H](O[C@H]3O[C@H](CO)[C@@H](O)[C@H](O)[C@@H]3O[C@H]3O[C@H](CO)[C@@H](O)[C@H](O)[C@@H]3O[C@H]3O[C@H](CO)[C@@H](O)[C@H](O[C@H]4O[C@H](CO)[C@@H](O)[C@H](O)[C@H]4O)[C@@H]3O)[C@@H]2O)[C@@H]1O", "note": "(some centres unmarked) [GlcMan9GlcNAc2]", "values": [{"measurement": "LC-MS", "setting": "Bl_Endo85", "result": "Reaction of Bl_Endo85 against GlcMan9GlcNAc2, generating GlcMan9GlcNAc"}]}
{"molecule": "OC[C@H]1O[C@H](O[C@H]2[C@H](O)[C@@H](CO)OC(O)[C@H]2O)[C@@H](O)[C@@H](O)[C@@H]1O", "note": "(stereo partly drawn) [α-1,3-mannobiose]", "values": [{"measurement": "Km", "setting": "Bl_Man38B", "result": "Bl_Man38B was efficient over the three disaccharides"}]}
{"molecule": "B1", "values": [{"measurement": "stoichiometry N", "setting": "cryo-EM structure", "result": 4}]}
{"molecule": "B2", "values": [{"measurement": "stoichiometry N", "setting": "cryo-EM structure", "result": 4}]}
{"molecule": "B3", "values": [{"measurement": "stoichiometry N", "setting": "cryo-EM structure", "result": 4}]}
